Test results reported in US20230095569A1 (ANTENGENE BIOLOGICS, published 2023).

Experiments:
[1] = target: T1, human Claudin18.2 (CLDN18.2) (human, UniProt P56856 1-261); assay: FACS on CHOK1-18.2 cells;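 for FACS MFI: antibody binding to the cells detected with a fluorescently labelled secondary antibody and read out as median fluorescence intensity by flow cytometry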
T1 construct: the cell line is named under assay; also called human Claudine18.2; hClaudin18.2

[2] = target: T1, human Claudin18.2 (CLDN18.2); assay: FACS on CHOK1-18.2 cells, antibody at 50 µg/ml
[3] = target: T1, human Claudin18.2 (CLDN18.2); assay: cell-based or functional assay
[4] = target: T1, human Claudin18.2 (CLDN18.2); assay: cell-based or functional assay; remark: listed apart in the source
[5] = target: T1, human Claudin18.2 (CLDN18.2); assay: cell-based or functional assay; remark: listed apart in the source
[6] = target: T1, human Claudin18.2 (CLDN18.2); assay: FACS on GAXC031 cells, antibody at 50 µg/ml
[7] = target: T2, human Claudin18.1 (CLDN18.1) (human, UniProt P56856 1-261); assay: FACS on CHOK1-18.1 cells;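 for FACS MFI: test antibody binding to the cells detected by flow cytometry using a fluorescent dye-labelled secondary antibody, read out as median fluorescence intensity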;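 for result: antibody binding to cells detected with a fluorescently labelled secondary antibody, read out as median fluorescence intensity (MFI) by flow cytometry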
T2 construct: whole, on cells; also called human Claudine18.1
Method: (§1) The specificity and cross-reactivity of these subclones were confirmed with FACs analysis. […] Fluorescent dye-conjugated secondary antibody was used to detect the binding of the primary antibody with the cells. Median fluorescence intensity (MFI) was measured by FACs analysis.

[8] = target: T1, human Claudin18.2 (CLDN18.2); assay: FACS on CHOK1-18.2 cells; remark: listed apart in the source;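 for FACS MFI: antibody binding to the cells detected with a fluorescently labelled secondary antibody and read out as median fluorescence intensity by flow cytometry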
Method: as §1

[9] = target: T2, human Claudin18.1 (CLDN18.1); assay: FACS on CHOK1-18.1 cells; remark: listed apart in the source;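 for FACS MFI: test antibody binding to the cells detected by flow cytometry using a fluorescent dye-labelled secondary antibody, read out as median fluorescence intensity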;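 for result: antibody binding to cells detected with a fluorescently labelled secondary antibody, read out as median fluorescence intensity (MFI) by flow cytometry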
Method: as §1

Binder	EC50 [1] [nM]	MAX MFI [2]	ADCC EC50 [3] [nM]	Max tumor cell killing (% of control), ADCC [3]	CDC EC50 [4] [nM]	Max CDC induced tumor cell killing (% of control) [4]	IC50 of indirect ADC cytotoxicity [5] [nM]	Max inhibition % [5] [%]	MAX MFI [6]	binding result [7]	FACS MFI [8]	FACS MFI [9]
chAb24 (antibody, V domains shown) VH: EVKLVESGGGLVKPGGSLKLSCAGSGFTFSSYTMSWVRQTPEKRLEWVATITIGVNIYYLDSVKGRFTISRDNAKNTLYLQMNSLRSEDTALYYCTRLGQTQRNAMDYWGQGTSVTVSS VL: DIVMTQSPTSLSVSAGEKVTMTCKSSQSLFNSGNQKNYLAWYQEKPGQPPKLLIYGASTRESGVPDRFTGSGSGTDFTLTISSVQAEDLAVYYCQNVHFYPFTFGAGTKLEL	4.99	64500	4.46	66.6 % of control	12.8	70.7 % of control	0.85	92.7	5860	–	–	–
Ab24 (antibody, V domains shown, mouse monoclonal (hybridoma)) VH: EVKLVESGGGLVKPGGSLKLSCAGSGFTFSSYTMSWVRQTPEKRLEWVATITIGVNIYYLDSVKGRFTISRDNAKNTLYLQMNSLRSEDTALYYCTRLGQTQRNAMDYWGQGTSVTVSS VL: DIVMTQSPTSLSVSAGEKVTMTCKSSQSLFNSGNQKNYLAWYQEKPGQPPKLLIYGASTRESGVPDRFTGSGSGTDFTLTISSVQAEDLAVYYCQNVHFYPFTFGAGTKLEL	–	–	–	–	–	–	–	–	–	no binding	10100	80.8
chAb11 (antibody, V domains shown) VH: EVMLVESGGDLVKPGGSLKLSCAASGFTFSRYTMSWVRQTPEKRLEWVATVSVGSGNTYYLDSVKGRFTISRDNAKNTLFLQMNSLRSEDTALYYCTRLGQTQRNAVDYWGQGTSVTVSS VL: DIVMTQSPSFLSVSAGEKVTMSCKSSQSLFNGGNQKNYLAWYQQKPGQPPKLLIYGASTRDSGVPDRFTGSGSGTDFTLTISNVQAEDLAIYFCQNDHSFPLTFGAGTKLELK	3.63	85600	3.7	54.7 % of control	19.4	71.2 % of control	0.87	93.5	6420	–	–	–
Ab19 (antibody, V domains shown, mouse monoclonal (hybridoma)) VH: EVMLVESGGDLVKPGGSLKLSCAASGFSFSRYTMSWVRQTPEKRLEWVATVSVGSGNTYYLDSVKGRFTISRDNAKNTLFLQMSSLRSEDTALYYCARMGQTQRNAVDYWGQGTSVTVSS VL: DIVMTQSPSSLSVSAGEKVTMSCKSSQSLFNSGNQKNYLAWYQQKPGQPPKLLIYGASTRESGVPDRFTGSGSGTDFTLTISNVQAEDLAVYLCQNDHSFPLTFGAGTKLEL	–	–	–	–	–	–	–	–	–	no binding	7340	80.8
chAb04 (antibody, V domains shown) VH: EVQLQQSGPELVKPGASVKMSCMASGYTFTDYNIHWVKRSHGSRLEWIGYISPISGGAGYNQKFMDKATLTVDKSSNTAYMELRSLTSEDSAVYYCTRGDYWGQGTTLTVSS VL: DIVMTQSPSSLAVTVGEKVTMSCKSSQSLLNSGNQKNYLTWYQQKPGQPPKLLIYWASTRKSGVPDRFTGSGSGTDFTLTISSVQAEDLGIYYCLNDYGFPLTFGAGSKLELK	2.14	75300	–	–	–	–	–	–	3860	–	–	–
chAb18 (antibody, V domains shown) VH: QVQLKESGPGLVAPSQSLSITCTVSGFSLTTYGINWVRQPPGKGLEWLGVIWGDGSTNYHSALISRLSISKDNSKSQVFLKLNSLQTDDTATYYCVKSSYYGNAMDYWGQGTSVTVSS VL: DIVMTQSPSSLTVTAGETVTMSCKSSQSLLNSGNQKNYLTWYQQKPGQPPKLLIYWASTRESGVPDRFTGSGSGTDFTLTISSVQAEDLAVYYCQNVYSYPFTFGSGTKLEI	7.71	60200	5.07	61.5 % of control	35	75.3 % of control	1.58	90.7	3690	–	–	–
Ab18 (antibody, V domains shown, mouse monoclonal (hybridoma)) VH: QVQLKESGPGLVAPSQSLSITCTVSGFSLTTYGINWVRQPPGKGLEWLGVIWGDGSTNYHSALISRLSISKDNSKSQVFLKLNSLQTDDTATYYCVKSSYYGNAMDYWGQGTSVTVSS VL: DIVMTQSPSSLTVTAGETVTMSCKSSQSLLNSGNQKNYLTWYQQKPGQPPKLLIYWASTRESGVPDRFTGSGSGTDFTLTISSVQAEDLAVYYCQNVYSYPFTFGSGTKLEI	–	–	–	–	–	–	–	–	–	no binding	9910	79.4
chAb08 (antibody, V domains shown) VH: QVQLQQPGAELVKPGASVKLSCKASGYTFTSYLLHWVKQRPGQGLEWIGMIHPNGGSTNYNEKFKTKATLTVDKSSSTAYMQLSSLTSEDSAVYYCAPVYFGNSFAYWGQGTLVTVSA VL: DIVMTQSPSSLTVTAGEKVTMSCKSSQSLLNSGNQKNYLTWYQQKPGQPPKLLIYWASTRESGVPDRFTGSGSGTDFTLTISSVQAEDLAVYYCQNDYYYPFTFGSGTKLEKK	3.6	71900	2.22	69.3 % of control	13.6	68.4 % of control	0.45	92.5	5830	–	–	–
chAb30 (antibody, V domains shown) VH: QVQLKESGPGLVAPSQSLSITCTVSGFSLTKFGVNWVRQPPGKGLEWLGAIWGDGSTNYHSALISRLSINKDNSKSQVFLKLSSLQNVDTATYYCAKSGYGNAMDYWGHGTSVTVSS VL: DIVMTQSPSSLTVTTGEKVTLNCKSSQSLLNSGNLKNYLTWYQQRPGQPPKLLIYWASTRESGVPYRFTGSGSGTDFTLTISNVQAEDLAIYYCQNDYFFPFTFGSGTKLEIK	9.76	65000	7.44	80.2 % of control	23.2	76.1 % of control	1.58	92.4	4460	–	–	–
chAb25 (antibody, V domains shown) VH: EAQLQQSGPELVKPGASVKIFCKASGYTFTDYYINWVKQSHGKSLEWIGDINPNNGGTTYNQKFKGKATLTVDKSSSTASMELRRLTSEDSSVYYCARRDAMDYWGQGTSVTVSS VL: DIVMTQSQKFMSTTVGDRVSITCTASQNVGPAVAWYQQKPGQSPKLLIYSASRRFTGVPDRFTGSGSGTVFTLTINNVQSEDLADYFCQQYISYPLTFGAGTKLELK	8.27	56100	8.38	76.8 % of control	25.4	72.9 % of control	0.86	92.9	3020	–	–	–
Ab25 (antibody, V domains shown, mouse monoclonal (hybridoma)) VH: EAQLQQSGPELVKPGASVKIFCKASGYTFTDYYINWVKQSHGKSLEWIGDINPNNGGTTYNQKFKGKATLTVDKSSSTASMELRRLTSEDSSVYYCARRDAMDYWGQGTSVTVSS VL: DIVMTQSQKFMSTTVGDRVSITCTASQNVGPAVAWYQQKPGQSPKLLIYSASRRFTGVPDRFTGSGSGTVFTLTINNVQSEDLADYFCQQYISYPLTFGAGTKLELK	–	–	–	–	–	–	–	–	–	no binding	12600	82.3
